Measurements published in PMC3087496 (Biochemistry, 2011).

Target: wild-type His6-Gαi1 (rat, UniProt P10824 1-354)
Experiment: SEC

wild-type His6-Gαi1, sequence (P10824 whole entry): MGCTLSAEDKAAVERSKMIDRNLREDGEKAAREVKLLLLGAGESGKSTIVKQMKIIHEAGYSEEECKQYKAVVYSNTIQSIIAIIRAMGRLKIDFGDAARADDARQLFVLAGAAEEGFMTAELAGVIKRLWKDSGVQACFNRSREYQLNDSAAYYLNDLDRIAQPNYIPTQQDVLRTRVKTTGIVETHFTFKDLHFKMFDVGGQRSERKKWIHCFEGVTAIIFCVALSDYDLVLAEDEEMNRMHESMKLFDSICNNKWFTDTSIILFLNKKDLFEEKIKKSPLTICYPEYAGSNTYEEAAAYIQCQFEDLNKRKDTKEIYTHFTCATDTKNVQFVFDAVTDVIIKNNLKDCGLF

B1: TxHis6-ΔRGS14 (encoding amino acids 299-544, including the RBD domains and GL domain) (domain or fragment, rat, UniProt O08773 299-544, looked up)
chain: GKYCCVYLPDGTASLALARPGLTIRDMLAGICEKRGLSLPDIKVYLVGKEQKALVLDQDCTVLADQEVRLENRITFQLELVGLERVVRISAKPTKRLQEALQPILAKHGLSLDQVVLHRPGEKQLVDLENLVSSVASQTLVLDTLPDAKTREASSIPPCRSQGCLPRTQTKDSHLPPLSSSLSVEDASGSTGKRQTCDIEGLVELLNRVQSSGAHDQRGLLRKEDLVLPEFLQLPSQRPGSQEAPP
B1: binds.
